The test has as its target T1, granzyme B (Homo sapiens, UniProt P10144).
T1 construct: Some of these preparations were used for the further purification of granzyme B (Tschopp, 1994); endogenous in cells; host or cells: YT cells (human NK cell line), cytoplasmic granules
Put plainly: Susceptibility of autoantigens to cleavage by purified granzyme B (HeLa lysate immunoblot or immunoprecipitates). It is filed as biochemical. To be noted: in vitro. On the procedure:
To determine whether susceptibility to direct cleavage by granzyme B was an isolated feature of PARP, NuMA and DNA-PKcs shown above, or whether it was a more general feature of autoantigens, a variety of well-defined autoantigens selected from across the spectrum of systemic autoimmune diseases were tested for susceptibility to cleavage by purified granzyume B. The efficiency of cleavage of the substrates by purified granzyme B was also noted (Table 3). Initially, a series of autoantibodies of well-defined specificity were used to immunoblot lysates of HeLa cells that had been incubated in vitro with or without granzyme B. Lysates were pre-treated with iodoacetamide (IAA) to prevent interference by endogenous caspase activity.
To perform these studies, HeLa cells were radiolabeled with [^35S] methionine/cysteine, and proteins were immunoprecipitated using human autoantibodies. Protein A-agarose beads containing washed precipitated proteins were resuspended in buffer supporting the activity of granzyme B, and incubated in the absence or presence of added purified granzyme B. Reaction products were visualized using SDS-PAGE and fluorography. To confirm the validity of this approach, several different autoantigens known to be cleaved by granzyme B, as well as several autoantigens and non-autoantigens that are not cleaved by granzyme B, were tested. Using autoantibodies that both immunoblot and immunprecipitate, the cleavage profiles obtained using granzyme B to cleave molecules in lysates (followed by detection with immunoblotting), and after immunoprecipitation (from [^35S]methionine-labeled HeLa lysate) were compared. Identical results were obtained using these 2 methods for cleaved autoantigens (topoisomerase-1, Mi-2, RNA polymerase II large subunit, Ku-70, PARP, and NOR-90), uncleaved autoantigens (Ku-80, Ro 60k), and control substrates (β-tubulin, vinculin). […] Of note, all these additional autoantigens (with the exception of RNA polymerase I) are targeted in autoimmune myositis. However, two other tRNA synthetases (threonyl tRNA synthetase and glycyl tRNA synthetase) that are also autoantigens in autoimmune myositis, were not cleaved using this approach.

T1 sequence (P10144 21-247): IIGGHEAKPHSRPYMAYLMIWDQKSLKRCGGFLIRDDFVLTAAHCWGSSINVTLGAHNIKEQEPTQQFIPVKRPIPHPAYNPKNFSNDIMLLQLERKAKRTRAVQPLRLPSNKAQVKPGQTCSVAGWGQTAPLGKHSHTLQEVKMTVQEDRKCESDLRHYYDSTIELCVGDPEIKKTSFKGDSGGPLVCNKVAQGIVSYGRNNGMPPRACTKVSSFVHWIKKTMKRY

B1: Alanyl tRNA synthetase (PL-12): autoantigen targeted in autoimmune myositis (protein)
chain: MDSTLTASEIRQRFIDFFKRNEHTYVHSSATIPLDDPTLLFANAGMNQFKPIFLNTIDPSHPMAKLSRAANTQKCIRAGGKHNDLDDVGKDVYHHTFFEMLGSWSFGDYFKELACKMALELLTQEFGIPIERLYVTYFGGDEAAGLEADLECKQIWQNLGLDDTKILPGNMKDNFWEMGDTGPCGPCSEIHYDRIGGRDAAHLVNQDDPNVLEIWNLVFIQYNREADGILKPLPKKSIDTGMGLERLVSVLQNKMSNYDTDLFVPYFEAIQKGTGARPYTGKVGAEDADGIDMAYRVLADHARTITVALADGGRPDNTGRGYVLRRILRRAVRYAHEKLNASRGFFATLVDVVVQSLGDAFPELKKDPDMVKDIINEEEVQFLKTLSRGRRILDRKIQSLGDSKTIPGDTAWLLYDTYGFPVDLTGLIAEEKGLVVDMDGFEEERKLAQLKSQGKGAGGEDLIMLDIYAIEELRARGLEVTDDSPKYNYHLDSSGSYVFENTVATVMALRREKMFVEEVSTGQECGVVLDKTCFYAEQGGQIYDEGYLVKVDDSSEDKTEFTVKNAQVRGGYVLHIGTIYGDLKVGDQVWLFIDEPRRRPIMSNHTATHILNFALRSVLGEADQKGSLVAPDRLRFDFTAKGAMSTQQIKKAEEIANEMIEAAKAVYTQDCPLAAAKAIQGLRAVFDETYPDPVRVVSIGVPVSELLDDPSGPAGSLTSVEFCGGTHLRNSSHAGAFVIVTEEAIAKGIRRIVAVTGAEAQKALRKAESLKKCLSVMEAKVKAQTAPNKDVQREIADLGEALATAVIPQWQKDELRETLKSLKKVMDDLDRASKADVQKRVLEKTKQFIDSNPNQPLVILEMESGASAKALNEALKLFKMHSPQTSAMLFTVDNEAGKITCLCQVPQNAANRGLKASEWVQQVSGLMDGKGGGKDVSAQATGKNVGCLQEALQLATSFAQLRLGDVKN
For the molecule B1, the “susceptibility to cleavage by granzyme B” value was “cleaved”.

B2: Fibrilliarin: autoantigen (protein)
chain: MKPGFSPRGGGFGGRGGFGDRGGRGGRGGFGGGRGRGGGFRGRGRGGGGGGGGGGGGGRGGGGFHSGGNRGRGRGGKRGNQSGKNVMVEPHRHEGVFICRGKEDALVTKNLVPGESVYGEKRVSISEGDDKIEYRAWNPFRSKLAAAILGGVDQIHIKPGAKVLYLGAASGTTVSHVSDIVGPDGLVYAVEFSHRSGRDLINLAKKRTNIIPVIEDARHPHKYRMLIAMVDVIFADVAQPDQTRIVALNAHTFLRNGGHFVISIKANCIDSTASAEAVFASEVKKMQQENMKPQEQLTLEPYERDHAVVVGVYRPPPKVKN
In the case of B2, the “susceptibility to cleavage by granzyme B” value is given as “efficiently cleaved”.

B3: Histidyl tRNA synthetase (Jo-1): autoantigen targeted in autoimmune myositis (protein)
chain: AERAALEELVKLQGERVRGLKQQKASAELIEEEVAKLLKLKAQLGPDESKQKFVLKTPKGTRDYSPRQMAVREKVFDVIIRCFKRHGAEVIDTPVFELKETLMGKYGEDSKLIYDLKDQGGELLSLRYDLTVPFARYLAMNKLTNIKRYHIAKVYRRDNPAMTRGRYREFYQCDFDIAGNFDPMIPDAECLKIMCEILSSLQIGDFLVKVNDRRILDGMFAICGVSDSKFRTICSSVDKLDKVSWEEVKNEMVGEKGLAPEVADRIGDYVQQHGGVSLVEQLLQDPKLSQNKQALEGLGDLKLLFEYLTLFGIDDKISFDLSLARGLDYYTGVIYEAVLLQTPAQAGEEPLGVGSVAAGGRYDGLVGMFDPKGRKVPCVGLSIGVERIFSIVEQRLEALEEKIRTTETQVLVASAQKKLLEERLKLVSELWDAGIKAELLYKKNPKLLNQLQYCEEAGIPLVAIIGEQELKDGVIKLRSVTSREEVDVRREDLVEEIKRRTGQPLCIC
Regarding B3, the “susceptibility to cleavage by granzyme B” value was “cleaved”.

B4: Isoleucyl tRNA synthetase (O.J.): autoantigen targeted in autoimmune myositis (protein)
chain: MLQQVPENINFPAEEEKILEFWTEFNCFQECLKQSKHKPKFTFYDGPPFATGLPHYGHILAGTIKDIVTRYAHQSGFHVDRRFGWDCHGLPVEYEIDKTLGIRGPEDVAKMGITEYNNQCRAIVMRYSAEWKSTVSRLGRWIDFDNDYKTLYPQFMESVWWVFKQLYDKGLVYRGVKVMPFSTACNTPLSNFESHQNYKDVQDPSVFVTFPLEEDETVSLVAWTTTPWTLPSNLAVCVNPEMQYVKIKDVARGRLLILMEARLSALYKLESDYEILERFPGAYLKGKKYRPLFDYFLKCKENGAFTVLVDNYVKEEEGTGVVHQAPYFGAEDYRVCMDFNIIRKDSLPVCPVDASGCFTTEVTDFAGQYVKDADKSIIRTLKEQGRLLVATTFTHSYPFCWRSDTPLIYKAVPSWFVRVENMVDQLLRNNDLCYWVPELVREKRFGNWLKDARDWTISRNRYWGTPIPLWVSDDFEEVVCIGSVAELEELSGAKISDLHRESVDHLTIPSRCGKGSLHRISEVFDCWFESGSMPYAQVHYPFENKREFEDAFPADFIAEGIDQTRGWFYTLLVLATALFGQPPFKNVIVNGLVLASDGQKMSKRKKNYPDPVSIIQKYGADALRLYLINSPVVRAENLRFKEEGVRDVLKDVLLPWYNAYRFLIQNVLRLQKEEEIEFLYNENTVRESPNITDRWILSFMQSLIGFFETEMAAYRLYTVVPRLVKFVDILTNWYVRMNRRRLKGENGMEDCVMALETLFSVLLSLCRLMAPYTPFLTELMYQNLKVLIDPVSVQDKDTLSIHYLMLPRVREELIDKKTESAVSQMQSVIELGRVIRDRKTIPIKYPLKEIVVIHQDPEALKDIKSLEKYIIEELNVRKVTLSTDKNKYGIRLRAEPDHMVLGKRLKGAFKAVMTSIKQLSSEELEQFQKTGTIVVEGHELHDEDIRLMYTFDQATGGTAQFEAHSDAQALVLLDVTPDQSMVDEGMAREVINRIQKLRKKCNLVPTDEITVYYKAKSEGTYLNSVIESHTEFIFTTIKAPLKPYPVSPSDKVLIQEKTQLKGSELEITLTRGSSLPGPACAYVNLNICANGSEQGGVLLLENPKGDNRLDLLKLKSVVTSIFGVKNTELAVFHDETEIQNQTDLLSLSGKTLCVTAGSAPSLINSSSTLLCQYINLQLLNAKPQECLMGTVGTLLLENPLGQNGLTHQGLLYEAAKVFGLRSRKLKLFLNETQTQEITEDIPVKTLNMKTVYVSVLPTTADF
Take B4: the “susceptibility to cleavage by granzyme B” value was “cleaved”.

B5: La: autoantigen (protein, UniProt P05455 1-408, looked up)
Lupus La protein: MAENGDNEKMAALEAKICHQIEYYFGDFNLPRDKFLKEQIKLDEGWVPLEIMIKFNRLNRLTTDFNVIVEALSKSKAELMEISEDKTKIRRSPSKPLPEVTDEYKNDVKNRSVYIKGFPTDATLDDIKEWLEDKGQVLNIQMRRTLHKAFKGSIFVVFDSIESAKKFVETPGQKYKETDLLILFKDDYFAKKNEERKQNKVEAKLRAKQEQEAKQKLEEDAEMKSLEEKIGCLLKFSGDLDDQTCREDLHILFSNHGEIKWIDFVRGAKEGIILFKEKAKEALGKAKDANNGNLQLRNKEVTWEVLEGEVEKEALKKIIEDQQESLNKWKSKGRRFKGKGKGNKAAQPGSGKGKVQFQGKKTKFASDDEHDEHDENGATGPVKRAREETDKEEPASKQQKTENGAGDQ
As for B5, the “susceptibility to cleavage by granzyme B” value was “efficiently cleaved”.

B6: NOR-90: autoantigen (protein, UniProt P17480 1-764, looked up)
Nucleolar transcription …: MNGEADCPTDLEMAAPKGQDRWSQEDMLTLLECMKNNLPSNDSSKFKTTESHMDWEKVAFKDFSGDMCKLKWVEISNEVRKFRTLTELILDAQEHVKNPYKGKKLKKHPDFPKKPLTPYFRFFMEKRAKYAKLHPEMSNLDLTKILSKKYKELPEKKKMKYIQDFQREKQEFERNLARFREDHPDLIQNAKKSDIPEKPKTPQQLWYTHEKKVYLKVRPDATTKEVKDSLGKQWSQLSDKKRLKWIHKALEQRKEYEEIMRDYIQKHPELNISEEGITKSTLTKAERQLKDKFDGRPTKPPPNSYSLYCAELMANMKDVPSTERMVLCSQQWKLLSQKEKDAYHKKCDQKKKDYEVELLRFLESLPEEEQQRVLGEEKMLNINKKQATSPASKKPAQEGGKGGSEKPKRPVSAMFIFSEEKRRQLQEERPELSESELTRLLARMWNDLSEKKKAKYKAREAALKAQSERKPGGEREERGKLPESPKRAEEIWQQSVIGDYLARFKNDRVKALKAMEMTWNNMEKKEKLMWIKKAAEDQKRYERELSEMRAPPAATNSSKKMKFQGEPKKPPMNGYQKFSQELLSNGELNHLPLKERMVEIGSRWQRISQSQKEHYKKLAEEQQKQYKVHLDLWVKSLSPQDRAAYKEYISNKRKSMTKLRGPNPKSSRTTLQSKSESEEDDEEDEDDEDEDEEEEDDENGDSSEDGGDSSESSSEDESEDGDENEEDDEDEDDDEDDDEDEDNESEGSSSSSSSSGDSSDSDSN
Turning to B6, the “susceptibility to cleavage by granzyme B” value was “efficiently cleaved”.

B7: CENP B: autoantigen (protein)
chain: GPKRRQLTFREKSRIIQEVEENPDLRKGEIARRFNIPPSTLSTILKNKRAILASERKYGVASTCRKTNKLSPYDKLEGLLIAWFQQIRAAGLPVKGIILKEKALRIAEELGMDDFTASNGWLDRFRRRHGVVSCSGVARARARNAAPRTPAAPASPAAVPSEGSGGSTTGWRAREEQPPSVAEGYASQDVFSATETSLWYDFLPDQAAGLCGGDGRPRQATQRLSVLLCANADGSEKLPPLVAGKSAKPRAGQAGLPCDYTANSKGGVTTQALAKYLKALDTRMAAESRRVLLLAGRLAAQSLDTSGLRHVQLAFFPPGTVHPLERGVVQQVKGHYRQAMLLKAMAALEGQDPSGLQLGLTEALHFVAAAWQAVEPSDIAACFREAGFGGGPNATITTSLKSEGEEEEEEEEEEEEEEGEGEEEEEEGEEEEEEGGEGEELGEEEEVEEEGDVDSDEEEEEDEESSSEGLEAEDWAQGVVEAGGSFGAYGAQEEAQCPTLHFLEGGEDSDSDSEEEDDEEEDDEDEDDDDDEEDGDEVPVPSFGEAMAYFAMVKRYLTSFPIDDRVQSHILHLEHDLVHVTRKNHARQAGVRGLGHQS
For B7, the “susceptibility to cleavage by granzyme B” value is on record as “efficiently cleaved”.

For the origin of these results see patent US6855515B1, “Autoantigenic fragments, methods and assays” (Merck & Co., Inc., priority 1998, dated 2005).
